From paper PMC7007383 (Cancer discovery, 2019)

B1: Rhotekin RHOA-GTP binding domain (RBD) (domain or fragment, UniProt Q8C6B2 17-98, looked up)
chain: ALEMEFKRGRFRLSFFSESPEDTELQRKLDHEIRMRDGACKLLAACSQREQALEATKSLLVCNSRILSYMGELQRRKEAQVL
B2: ROCK RHOA-GTP binding domain (RBD) (domain or fragment)
chain: TKDIEILRRENEELTEKMKKAEEEYKLEKEEEISNLKAAFEKNINTERTLKTQAVNKLAEIMNRKDF
B3: mDia RHOA-GTP binding domain (RBD) (domain or fragment)
chain: LQDISDEQVLVLFEQMLVDMNLNEEKQQPLREKDIVIKREMVSQYLHTSKAGMNQKESSRSAMMYIQELRSGLRDMHLLSCLESLRVSLNNNPVSWVQTFGAEGLASLLDILKRLHDEKEETSGNYDSRNQHEIIRCLKAFMNNKFGIKTMLETEEGILLLVRAMDPAVPNMMIDAAKLLSALCILPQPEDMNERVLEAMTERAEMDEVERFQPLLDGLKSGTSIALKVGCLQLINALITPAEELDFRVHIRSELMRLGLHQVLQELREIENEDMKVQLCVFDEQGDEDFFDLKGRLDDIRMEMDDFGEVFQIILNTVKDSKAEPHFLSILQHLLLVRNDYEARPQYYKLIEECVSQIVLHKNGTD

Assays:
[1] = target: recombinant RHOA wild type (human, UniProt P61586 1-193); experiment: other fluorescence titration
Sequence of recombinant RHOA wild type (P61586 whole entry): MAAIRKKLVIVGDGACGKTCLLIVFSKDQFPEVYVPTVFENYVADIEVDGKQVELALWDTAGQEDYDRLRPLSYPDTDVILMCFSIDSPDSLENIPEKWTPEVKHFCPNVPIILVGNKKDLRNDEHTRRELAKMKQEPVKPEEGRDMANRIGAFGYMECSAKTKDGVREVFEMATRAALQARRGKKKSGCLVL

recombinant RHOA Y42C = recombinant RHOA Y42C (human, UniProt P61586 1-193, Y42C); experiment: other fluorescence titration
Sequence of recombinant RHOA Y42C (P61586 whole entry Y42C): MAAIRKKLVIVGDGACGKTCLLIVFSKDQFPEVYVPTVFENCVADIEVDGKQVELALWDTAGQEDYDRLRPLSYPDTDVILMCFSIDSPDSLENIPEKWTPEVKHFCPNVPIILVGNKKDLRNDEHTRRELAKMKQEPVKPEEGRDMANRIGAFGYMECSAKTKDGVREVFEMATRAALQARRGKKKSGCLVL

| Binder | Kd [1] | fold change of binding against RHOA WT (recombinant RHOA Y42C) |
| --- | --- | --- |
| B1 | 500 ± 40 nM | – |
| B2 | 380 ± 30 nM | 12 fold |
| B3 | 460 ± 60 nM | – |
